Key:
[1] = biological target: human MASP-2 (endogenous, in normal human serum) (human, UniProt O00187 16-686); test: cell-based or functional assay
[2] = biological target: T1, Catalytically active MASP-2 (human) (human, UniProt O00187 16-686, limits assumed); test: SPR, immobilized OMS858, fluid phase MASP-2
T1 construct: also called catalytically active form of human MASP-2

Zymogen MASP-2 (human) = biological target: T2, Zymogen MASP-2 (human) (human, UniProt O00187 16-686, limits assumed); test: SPR, immobilized OMS858, fluid phase MASP-2
T2 construct: also called zymogen form of human MASP-2

C1r = biological target: T3, C1r (human, UniProt P00736 18-705, limits assumed); test: solid phase ELISA, immobilized protease, apparent KD
T3 construct: Species read from 'Recombinant human MASP-2 or C1r, C1s, CFD, MASP-1 and MASP-3'
T3 sequence (looked up): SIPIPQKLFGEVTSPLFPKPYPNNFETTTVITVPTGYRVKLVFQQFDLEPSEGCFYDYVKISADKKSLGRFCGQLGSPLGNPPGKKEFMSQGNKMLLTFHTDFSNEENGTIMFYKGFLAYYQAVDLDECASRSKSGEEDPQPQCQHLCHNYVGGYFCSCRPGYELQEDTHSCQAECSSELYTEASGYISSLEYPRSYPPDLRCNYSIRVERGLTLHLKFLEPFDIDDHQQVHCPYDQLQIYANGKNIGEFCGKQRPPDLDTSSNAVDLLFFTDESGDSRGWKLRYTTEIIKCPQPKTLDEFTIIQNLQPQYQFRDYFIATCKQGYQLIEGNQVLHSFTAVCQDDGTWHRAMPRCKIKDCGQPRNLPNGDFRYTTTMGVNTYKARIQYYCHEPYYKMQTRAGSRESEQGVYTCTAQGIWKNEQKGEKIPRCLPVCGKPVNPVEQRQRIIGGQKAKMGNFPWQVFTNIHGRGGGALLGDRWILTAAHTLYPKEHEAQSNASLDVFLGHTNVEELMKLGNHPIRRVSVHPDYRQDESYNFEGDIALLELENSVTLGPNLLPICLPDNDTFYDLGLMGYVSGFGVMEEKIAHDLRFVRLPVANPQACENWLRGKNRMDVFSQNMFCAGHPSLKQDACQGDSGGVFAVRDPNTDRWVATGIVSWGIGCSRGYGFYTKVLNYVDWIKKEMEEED
Text: The apparent dissociation constant (KD) was estimated by nonlinear regression using a 4-parameter logistic model.

[3] = biological target: T4, human MASP-2 (CCP1-CCP2-SP fragment) (human, UniProt O00187 287-686, limits assumed); test: solid phase ELISA, plate coated with human MASP-2 (CCP1-CCP2-SP fragment), bound mAb detected with goat anti-human IgG-HRP, OD450
T4 construct: also called human MASP-2 (CCP1/2/SP fragment); hMASP-2-CCP1-CCP2-SP
Description: To measure binding of the 26 purified recombinant MASP-2 antibodies to human MASP-2 (CCP1-CCP2-SP fragment), a solid phase ELISA assay was carried out as follows. A MaxiSorp ELISA plate was coated with human MASP-2 (CCP1/2/SP fragment) at 1.0 μg/mL in carbonate/bi-carbonate buffer overnight at 4° C. […] The plate was washed (PBS-T, 0.05%) and a detection antibody was added (goat anti-human IgG-HRP) for one hour at room temperature. After another wash (PBS-T, 0.05%) the plate was developed (5 minutes) with OPT EIA TMB (BD Biosciences #555214). Absorbance reading at A450 was measured using the Spectramax M5e plate reader.
A solid phase ELISA assay was carried out to measure binding of the three selected MASP-2 inhibitory antibodies to human MASP-2 (CCP1-CCP2-SP fragment), as described in Example 1.

T2 sequence (O00187 16-686 limits assumed): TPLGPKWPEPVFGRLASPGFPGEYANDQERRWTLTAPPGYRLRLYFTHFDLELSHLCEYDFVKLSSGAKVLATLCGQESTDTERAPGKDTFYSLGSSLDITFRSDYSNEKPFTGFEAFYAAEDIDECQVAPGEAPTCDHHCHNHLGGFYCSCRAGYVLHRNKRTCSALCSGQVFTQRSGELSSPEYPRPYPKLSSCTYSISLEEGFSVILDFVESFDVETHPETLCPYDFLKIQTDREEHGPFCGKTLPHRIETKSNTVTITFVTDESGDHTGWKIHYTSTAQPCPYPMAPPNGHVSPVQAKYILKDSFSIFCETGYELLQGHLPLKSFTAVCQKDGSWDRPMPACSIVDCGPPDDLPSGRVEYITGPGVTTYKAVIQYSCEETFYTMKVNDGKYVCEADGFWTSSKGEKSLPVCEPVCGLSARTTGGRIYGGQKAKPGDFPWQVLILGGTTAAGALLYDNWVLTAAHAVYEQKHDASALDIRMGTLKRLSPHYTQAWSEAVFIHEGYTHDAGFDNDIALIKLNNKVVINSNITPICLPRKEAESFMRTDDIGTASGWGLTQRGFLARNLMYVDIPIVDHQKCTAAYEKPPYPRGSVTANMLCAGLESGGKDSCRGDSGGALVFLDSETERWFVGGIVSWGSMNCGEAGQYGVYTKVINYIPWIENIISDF
T1 sequence (O00187 16-686 limits assumed): as above
human MASP-2 (endogenous, in normal human serum), sequence (O00187 16-686 limits assumed): as above
T4 sequence (O00187 287-686 limits assumed): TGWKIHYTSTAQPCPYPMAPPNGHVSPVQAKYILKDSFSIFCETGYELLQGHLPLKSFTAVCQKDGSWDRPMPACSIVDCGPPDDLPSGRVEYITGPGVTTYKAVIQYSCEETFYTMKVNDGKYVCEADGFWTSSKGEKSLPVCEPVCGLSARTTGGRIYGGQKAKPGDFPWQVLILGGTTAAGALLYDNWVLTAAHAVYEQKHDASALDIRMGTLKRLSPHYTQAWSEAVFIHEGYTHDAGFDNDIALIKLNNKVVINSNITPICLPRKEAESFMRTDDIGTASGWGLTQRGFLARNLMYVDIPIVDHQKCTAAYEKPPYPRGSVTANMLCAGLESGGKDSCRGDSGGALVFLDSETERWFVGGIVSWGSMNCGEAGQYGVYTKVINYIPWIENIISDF

B1: mAb OMS858 (humanized anti-MASP-2 antibody) (antibody, V domains shown)
VH: QVQLVQSGAEVKKPGASVKVSCKASGYTFTNHHMHWLRQAPGQGLEWIGDIDASDSETHYIEKFKDRATLTIDKSSSTAYMELSSLRSEDTAVYYCARGDITTTLRYFDVWGQGTLVTVSS
VL: DIQLTQSPSSLSASVGDRVTITCSASSSVRYMYWYQQKPGKAPKLLIYDTSNLASGVPSRFSGSGSGTDNTLTISSLQPEDFATYYCQQWSSYPLTFGQGTKVEIKR
notes: also called antibody OMS858; biotinylated OMS858
C5b-9 deposition, lectin pathway-specific conditions (Wieslab), human serum, IC50 [1]: 0.81 nM
MAC deposition under lectin pathway-specific conditions (Wieslab COMPL300), IC50 [1]: ~1 nM
Kd [2]: 0.287 nM
koff [2]: 0.00971 s⁻¹
kon [2]: 3.38e+07 M⁻¹ s⁻¹
Kd (Zymogen MASP-2 (human)): 0.715 nM
koff (Zymogen MASP-2 (human)): 0.000172 s⁻¹
kon (Zymogen MASP-2 (human)): 241000 M⁻¹ s⁻¹
Kd (C1r): > 100 µg/mL
EC50 (read off the curve) [3]: ~0.2 nM

From US20230265215A1 (OMEROS, published 2023)
